Laboratory results from paper PMC4761300 (Molecular cell, 2016).

Target: the molecule itself
Assay: SDS-PAGE of bicelle-reconstituted peptide

Row | Protein | stoichiometry N
1 | RNRLWLLTILVLLIPLVFIYRKYRKRKS [mouse Fas-TM (transmembrane domain peptide of mouse Fas)] | 3
2 | RSNLGWLSLLLLPIPLIVWVKRKEVQKT [human Fas-TM (transmembrane domain peptide of human Fas, C178S)] | 3
